B2: DNA ligase from S. solfataricus (Lig), wild type (enzyme)
chain: MEFKVIAEYFDKLEKISSRLQLTALLADLLSKSDKTIIDKVVYIIQGKLWPDFLGYPELGIGEKFLIKAISIATNTDENSVENLYKTIGDLGEVARRLKSKQQSTGILGFLGTTSKESLTVDEVYSTLSKVALTTGEGSRDLKIRLLAGLLKKADPLEAKFLVRFVEGRLRVGIGDATVLDAMAIAFGGGQSASEIIERAYNLRADLGNIAKIIVEKGIEALKTLKPQVGIPIRPMLAERLSNPEEILKKMGGNAIVDYKYDGERAQIHKKEDKIFIFSRRLENITSQYPDVVDYVSKYIEGKEFIIEGEIVAIDPESGEMRPFQELMHRKRKSDIYEAIKEYPVNVFLFDLMYYEDVDYTTKPLEARRKLLESIVKPNDYVKIAHHIQANNVEDLKSFFYRAISEGGEGVMVKAIGKDAIYQAGARGWLWIKLKRDYQSEMADTVDLVVVGGFYGKGKRGGKISSLLMAAYNPKTDSFESVCKVASGFSDEQLDELQKKLMEIKRDVKHPRVNSKMEPDIWVEPVYVAEIIGSEITISPLHTCCQDVVEKDAGLSIRFPRFIRWRDDKSPEDATTTDEILEMYNKQPKKKIESPAVDESV

Columns and labels:
[1] = target: T1, PCNA1 subunit of S. solfataricus PCNA (S. solfataricus, UniProt P57766 1-249); assay: cryo-EM structure
T1 sequence: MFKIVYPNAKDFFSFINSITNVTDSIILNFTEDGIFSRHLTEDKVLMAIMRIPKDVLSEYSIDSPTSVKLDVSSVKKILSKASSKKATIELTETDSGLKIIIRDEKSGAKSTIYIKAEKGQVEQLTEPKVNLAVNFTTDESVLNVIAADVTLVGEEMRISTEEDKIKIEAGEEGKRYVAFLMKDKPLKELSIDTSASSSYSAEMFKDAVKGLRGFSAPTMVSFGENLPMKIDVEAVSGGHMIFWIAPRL

[2] = target: B2; assay: negative stain electron microscopy
[3] = target: T2, PCNA_(1–2-3) heterotrimer of S. solfataricus (S. solfataricus, UniProt P57766 1-249; Q97Z84 1-245; P57765 1-244); assay: SEC-MALS
T2 sequence 1: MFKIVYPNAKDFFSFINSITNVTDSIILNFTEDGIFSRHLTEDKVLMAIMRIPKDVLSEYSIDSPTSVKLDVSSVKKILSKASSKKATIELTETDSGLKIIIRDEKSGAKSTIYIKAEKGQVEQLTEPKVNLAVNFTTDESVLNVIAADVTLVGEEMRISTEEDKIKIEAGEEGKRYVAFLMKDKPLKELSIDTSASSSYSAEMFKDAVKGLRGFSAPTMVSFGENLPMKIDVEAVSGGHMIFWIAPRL
T2 sequence 2: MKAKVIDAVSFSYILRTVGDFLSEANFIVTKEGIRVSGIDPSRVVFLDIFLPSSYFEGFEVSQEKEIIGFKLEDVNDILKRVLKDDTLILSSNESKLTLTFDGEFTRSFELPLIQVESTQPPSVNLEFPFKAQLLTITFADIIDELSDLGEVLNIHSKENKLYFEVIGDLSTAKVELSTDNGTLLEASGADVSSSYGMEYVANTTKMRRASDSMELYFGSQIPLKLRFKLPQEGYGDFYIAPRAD
T2 sequence 3: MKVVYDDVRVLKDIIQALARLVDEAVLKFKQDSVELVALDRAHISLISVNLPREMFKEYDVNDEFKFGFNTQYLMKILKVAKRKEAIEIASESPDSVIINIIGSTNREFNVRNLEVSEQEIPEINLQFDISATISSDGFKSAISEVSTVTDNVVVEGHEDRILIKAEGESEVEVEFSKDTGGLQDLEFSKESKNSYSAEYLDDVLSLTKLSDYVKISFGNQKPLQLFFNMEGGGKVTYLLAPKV

[4] = target: T3, PCNA heterotrimer containing PCNA2 S42C (S. solfataricus, UniProt P57766 1-249; Q97Z84 1-245; P57765 1-244, S42C); assay: cross-linking
T3 sequence 1: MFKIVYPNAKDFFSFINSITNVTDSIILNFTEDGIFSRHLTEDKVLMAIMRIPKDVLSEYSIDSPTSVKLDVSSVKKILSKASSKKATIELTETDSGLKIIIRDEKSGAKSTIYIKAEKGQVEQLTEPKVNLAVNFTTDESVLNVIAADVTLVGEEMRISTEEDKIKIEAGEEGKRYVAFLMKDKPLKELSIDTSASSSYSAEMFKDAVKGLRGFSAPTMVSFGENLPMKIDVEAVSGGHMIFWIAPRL
T3 sequence 2: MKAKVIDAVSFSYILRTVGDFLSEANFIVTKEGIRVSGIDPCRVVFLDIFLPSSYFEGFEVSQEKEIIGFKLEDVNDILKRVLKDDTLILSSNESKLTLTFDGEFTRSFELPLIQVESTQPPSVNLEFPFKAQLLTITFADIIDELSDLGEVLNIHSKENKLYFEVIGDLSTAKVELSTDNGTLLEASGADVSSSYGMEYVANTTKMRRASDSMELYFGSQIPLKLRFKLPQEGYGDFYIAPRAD
T3 sequence 3: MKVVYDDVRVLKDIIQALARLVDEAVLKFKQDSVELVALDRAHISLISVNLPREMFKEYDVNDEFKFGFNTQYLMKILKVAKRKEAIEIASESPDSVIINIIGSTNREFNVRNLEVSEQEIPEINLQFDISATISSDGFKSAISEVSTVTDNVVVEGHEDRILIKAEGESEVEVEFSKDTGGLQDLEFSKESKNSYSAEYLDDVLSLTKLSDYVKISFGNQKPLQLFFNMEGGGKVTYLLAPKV

[5] = target: T2, PCNA_(1–2-3) heterotrimer of S. …; assay: SEC

B1: PCNA2 subunit of S. solfataricus PCNA (natural protein)
chain: MKAKVIDAVSFSYILRTVGDFLSEANFIVTKEGIRVSGIDPSRVVFLDIFLPSSYFEGFEVSQEKEIIGFKLEDVNDILKRVLKDDTLILSSNESKLTLTFDGEFTRSFELPLIQVESTQPPSVNLEFPFKAQLLTITFADIIDELSDLGEVLNIHSKENKLYFEVIGDLSTAKVELSTDNGTLLEASGADVSSSYGMEYVANTTKMRRASDSMELYFGSQIPLKLRFKLPQEGYGDFYIAPRAD
B1: binds [1]; binds [2].

B2 was tested, and the “stoichiometry N” value [3] was 1.

B3: Lig 337 Y-C mutant (enzyme, S. solfataricus)
chain: MEFKVIAEYFDKLEKISSRLQLTALLADLLSKSDKTIIDKVVYIIQGKLWPDFLGYPELGIGEKFLIKAISIATNTDENSVENLYKTIGDLGEVARRLKSKQQSTGILGFLGTTSKESLTVDEVYSTLSKVALTTGEGSRDLKIRLLAGLLKKADPLEAKFLVRFVEGRLRVGIGDATVLDAMAIAFGGGQSASEIIERAYNLRADLGNIAKIIVEKGIEALKTLKPQVGIPIRPMLAERLSNPEEILKKMGGNAIVDYKYDGERAQIHKKEDKIFIFSRRLENITSQYPDVVDYVSKYIEGKEFIIEGEIVAIDPESGEMRPFQELMHRKRKSDICEAIKEYPVNVFLFDLMYYEDVDYTTKPLEARRKLLESIVKPNDYVKIAHHIQANNVEDLKSFFYRAISEGGEGVMVKAIGKDAIYQAGARGWLWIKLKRDYQSEMADTVDLVVVGGFYGKGKRGGKISSLLMAAYNPKTDSFESVCKVASGFSDEQLDELQKKLMEIKRDVKHPRVNSKMEPDIWVEPVYVAEIIGSEITISPLHTCCQDVVEKDAGLSIRFPRFIRWRDDKSPEDATTTDEILEMYNKQPKKKIESPAVDESV
B3: binds [4].

B4: Lig 338 E-C mutant (enzyme, S. solfataricus)
chain: MEFKVIAEYFDKLEKISSRLQLTALLADLLSKSDKTIIDKVVYIIQGKLWPDFLGYPELGIGEKFLIKAISIATNTDENSVENLYKTIGDLGEVARRLKSKQQSTGILGFLGTTSKESLTVDEVYSTLSKVALTTGEGSRDLKIRLLAGLLKKADPLEAKFLVRFVEGRLRVGIGDATVLDAMAIAFGGGQSASEIIERAYNLRADLGNIAKIIVEKGIEALKTLKPQVGIPIRPMLAERLSNPEEILKKMGGNAIVDYKYDGERAQIHKKEDKIFIFSRRLENITSQYPDVVDYVSKYIEGKEFIIEGEIVAIDPESGEMRPFQELMHRKRKSDIYCAIKEYPVNVFLFDLMYYEDVDYTTKPLEARRKLLESIVKPNDYVKIAHHIQANNVEDLKSFFYRAISEGGEGVMVKAIGKDAIYQAGARGWLWIKLKRDYQSEMADTVDLVVVGGFYGKGKRGGKISSLLMAAYNPKTDSFESVCKVASGFSDEQLDELQKKLMEIKRDVKHPRVNSKMEPDIWVEPVYVAEIIGSEITISPLHTCCQDVVEKDAGLSIRFPRFIRWRDDKSPEDATTTDEILEMYNKQPKKKIESPAVDESV
B4: binds [4].

B5: Lig 145 R-L mutant (enzyme, S. solfataricus)
chain: MEFKVIAEYFDKLEKISSRLQLTALLADLLSKSDKTIIDKVVYIIQGKLWPDFLGYPELGIGEKFLIKAISIATNTDENSVENLYKTIGDLGEVARRLKSKQQSTGILGFLGTTSKESLTVDEVYSTLSKVALTTGEGSRDLKILLLAGLLKKADPLEAKFLVRFVEGRLRVGIGDATVLDAMAIAFGGGQSASEIIERAYNLRADLGNIAKIIVEKGIEALKTLKPQVGIPIRPMLAERLSNPEEILKKMGGNAIVDYKYDGERAQIHKKEDKIFIFSRRLENITSQYPDVVDYVSKYIEGKEFIIEGEIVAIDPESGEMRPFQELMHRKRKSDIYEAIKEYPVNVFLFDLMYYEDVDYTTKPLEARRKLLESIVKPNDYVKIAHHIQANNVEDLKSFFYRAISEGGEGVMVKAIGKDAIYQAGARGWLWIKLKRDYQSEMADTVDLVVVGGFYGKGKRGGKISSLLMAAYNPKTDSFESVCKVASGFSDEQLDELQKKLMEIKRDVKHPRVNSKMEPDIWVEPVYVAEIIGSEITISPLHTCCQDVVEKDAGLSIRFPRFIRWRDDKSPEDATTTDEILEMYNKQPKKKIESPAVDESV
B5: binds [5].

B6: Lig 145 R-D mutant (enzyme, S. solfataricus)
chain: MEFKVIAEYFDKLEKISSRLQLTALLADLLSKSDKTIIDKVVYIIQGKLWPDFLGYPELGIGEKFLIKAISIATNTDENSVENLYKTIGDLGEVARRLKSKQQSTGILGFLGTTSKESLTVDEVYSTLSKVALTTGEGSRDLKIDLLAGLLKKADPLEAKFLVRFVEGRLRVGIGDATVLDAMAIAFGGGQSASEIIERAYNLRADLGNIAKIIVEKGIEALKTLKPQVGIPIRPMLAERLSNPEEILKKMGGNAIVDYKYDGERAQIHKKEDKIFIFSRRLENITSQYPDVVDYVSKYIEGKEFIIEGEIVAIDPESGEMRPFQELMHRKRKSDIYEAIKEYPVNVFLFDLMYYEDVDYTTKPLEARRKLLESIVKPNDYVKIAHHIQANNVEDLKSFFYRAISEGGEGVMVKAIGKDAIYQAGARGWLWIKLKRDYQSEMADTVDLVVVGGFYGKGKRGGKISSLLMAAYNPKTDSFESVCKVASGFSDEQLDELQKKLMEIKRDVKHPRVNSKMEPDIWVEPVYVAEIIGSEITISPLHTCCQDVVEKDAGLSIRFPRFIRWRDDKSPEDATTTDEILEMYNKQPKKKIESPAVDESV
B6: binds [5].

From PMC8897274 (Structure (London, England : 1993), 2021)
